# Source: the supplement of paper PMC9170038
# System: MS2 coat protein
# Experiment: apparent KD of MS2 coat protein; designed switch direction (-1 OFF switch, 1 ON switch): -1; higher = weaker reporter binding
# Outline: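 The buffer was Tris-HCl pH 7.5 with KCl, MgCl2, BSA, DTT, tRNA and Tween-20. In it, SNAP-549-labelled MS2 coat protein was titrated in doubling steps from 0.7 or 1.5 nM to 3 µM over chip-bound RNA switches transcribed by stalled E. coli RNA polymerase on Illumina chips. Apparent KD is the per-design median over clusters of curve fits to normalised fluorescence.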
# [1] = Eterna round: R95, input ligand: FMN 200 uM
# [2] = Eterna round: R95, input ligand: microRNA oligo, concentration not stated
# [3] = Eterna round: R95, input ligand: none
# [4] = input ligand: microRNA oligo, concentration not stated
sequence,measurement,setting,value
"UCCUGGCGAGGAUAUACAAUGUUAUUCGCGUGUAGUUGGAAACAUGAGGAUCACCCAUGUAGAAGGUGCUACUG [JR_Ex2_Sub025] (Eterna round: R97, puzzle: Exclusion 2)",apparent KD of MS2 coat protein,input ligand: FMN 200 uM,27.4 nM
same,apparent KD of MS2 coat protein,input ligand: none,23.8 nM
"GCUUAGGAAGGAUAUACAUGAGGAUCACCCAUGUUGACGCGGUAGGGCCCGGUAGCACGUAGAAGGUCUAUAGC [Eternabot (L2) Solution 46] (Eterna round: R97, puzzle: Exclusion 3)",apparent KD of MS2 coat protein,input ligand: FMN 200 uM,28.5 nM
same,apparent KD of MS2 coat protein,input ligand: none,19.4 nM
"UAUUUGUAAGGAUAUCUCGUCAUGGAGGAAACUCCAUGACGAGAGAAGGUACAUGAGGAUCACCCAUGUCUAUU [Mod of Fisker 23 - Jieux - Exclusion 4] (Eterna round: R97, puzzle: Exclusion 4)",apparent KD of MS2 coat protein,input ligand: FMN 200 uM,26.2 nM
same,apparent KD of MS2 coat protein,input ligand: none,18.6 nM
"CUCCUCAUGACGCCUAAACACAUGAGGAUCACCCAUGUACAGGCUUUUUGUCGUCUUAUAAUAAAACCGAGGAGGCG [Inletice] (puzzle: Sensor v3, turn-off variant 1)",apparent KD of MS2 coat protein,[1],14.6 nM
same,apparent KD of MS2 coat protein,[2],65.9 nM
same,apparent KD of MS2 coat protein,[3],15 nM
"UUUUGAUAUGAAGGAUAUACUUAACAUGAGGAUCACCCAUGUGGUGUUGUGAGUGAGUGAGUUUAGUAGAAGGUCAAUUAUUUU [JMF's solution 26] (Eterna round: R96, puzzle: Exclusion NG 2)",apparent KD of MS2 coat protein,input ligand: FMN 200 uM,470 nM
same,apparent KD of MS2 coat protein,[4],293 nM
same,apparent KD of MS2 coat protein,input ligand: none,303 nM
"GCAAGCUUUUGCUCGUCUUACAUGAGGAUCACCCAUGUCGGGCCCGGCCGUCGCGGCCGGGCCCGCCGGGCGCCGGG [-41.9, -69.5 kcal, A 10%] (Eterna round: R97, puzzle: Sensor, turn-off variant 1)",apparent KD of MS2 coat protein,input ligand: FMN 200 uM,53.5 nM
same,apparent KD of MS2 coat protein,input ligand: none,64.1 nM
"AAGUAGUGUGUGAGGAUAUUGGUGGAAUGACACAUUAAGAAGGCACAUGAGGAUCACCCAUGUGGGUAGACACG [Brourd's EX4 #21] (Eterna round: R97, puzzle: Brourd's mod of Exclusion 4)",apparent KD of MS2 coat protein,input ligand: FMN 200 uM,335 nM
same,apparent KD of MS2 coat protein,input ligand: none,27.8 nM
"GCACUGCGAGGAUAUACAUGAGGAUCACCCAUGUGUCCGCAGCGAUGCGAGUACAAAUGUAGAAGGCGCGUAAA [EX3 #57] (Eterna round: R97, puzzle: Exclusion 3)",apparent KD of MS2 coat protein,input ligand: FMN 200 uM,34.1 nM
same,apparent KD of MS2 coat protein,input ligand: none,14.3 nM
"CAGUACUGAGGAUAUACAUGAGGAUCACCCAUGUGUUCCAGCUAGGAAACUAGCAAAUGUAGAAGGCAGUACUG [Ex3: 827] (Eterna round: R96, puzzle: Exclusion 3)",apparent KD of MS2 coat protein,[4],216 nM
"AAAUACAAGUAAAGAUCCUACAUGAGGAUCACCCAUGUGUUCGUCUUAUAAAGUACUAUCACGAAAGUGAUAGUACA [Sensor 3, v1 - 24] (puzzle: Sensor v3, turn-off variant 1)",apparent KD of MS2 coat protein,[1],89 nM
same,apparent KD of MS2 coat protein,[2],131 nM
same,apparent KD of MS2 coat protein,[3],131 nM
CCAUCGAGUGUGAGGAUAUGCUGGUCAAUAGAUCAGCAGAAGGCACAUGAGGAUCACCCAUGUGGAGACGGUGG [Mat - Exclusion 4 - JL Mod - D79] (puzzle: Brourd's mod of Exclusion 4),apparent KD of MS2 coat protein,[1],333 nM
same,apparent KD of MS2 coat protein,[2],44.8 nM
same,apparent KD of MS2 coat protein,[3],70.6 nM
"CUGAGGUAGCGGUCCUAUGACAUGAGGAUCACCCAUGUACCUUGCUUCGAGCUUUUUGCUCGUCUUAUGAUUCUCGG [JL Atriat mod 5] (puzzle: Sensor v3, turn-off variant 1)",apparent KD of MS2 coat protein,[1],486 nM
same,apparent KD of MS2 coat protein,[2],456 nM
same,apparent KD of MS2 coat protein,[3],576 nM
"ACAUGUAAUGCAGGAUAUGGGACACAUGAGGAUCACCCAUGUGACCAGAUGUAAUGCUAAGAGUCUCAGAAGGGUAUGUACAUG [Ex NG2 #48] (Eterna round: R96, puzzle: Exclusion NG 2)",apparent KD of MS2 coat protein,input ligand: FMN 200 uM,17.8 nM
same,apparent KD of MS2 coat protein,[4],13.2 nM
same,apparent KD of MS2 coat protein,input ligand: none,17.8 nM
CCCUCACAUGAGGAUCACCCAUGUCAGGAUAUCUCACAUCAGCCUUAGGCCGAUGUCUAGAGAAGGGACGUAUC [Latees] (puzzle: Exclusion 1),apparent KD of MS2 coat protein,[2],21.3 nM
"AAGAGCAGACGGAGAUCCAACAUGAGGAUCACCCAUGUCUCGCAAGCUUUUUGCUUGUCUUAUCCUCCUCUGUUCAC [Esquitian 4] (Eterna round: R97, puzzle: Sensor, turn-off variant 1)",apparent KD of MS2 coat protein,input ligand: FMN 200 uM,14.8 nM
same,apparent KD of MS2 coat protein,input ligand: none,14.6 nM
"CAGUACUGAGGAUAUACAUGAGGAUCACCCAUGUAUCCAAGCUAGGAAACUAGCAAAUGUAGAAGGCAGUACUG [Ex3: 821] (Eterna round: R96, puzzle: Exclusion 3)",apparent KD of MS2 coat protein,[4],30.9 nM
